From patent US8048999B2, “Nuclear reprogramming factor” (Kyoto University, priority 2005, dated 2011)

Legend:
[1] = tested on: Nanog-EGFP-IRES-Puro mouse MEFs; assay: iPS cell establishment with Nanog-GFP reporter, puromycin selection; type: cell-based; conditions: 4 factors; PD98059 final concentration 25 μM continuously added from the next day of transfection
Text: Studies were made as to whether iPS cells could be established with a reporter other than Fbx15-βgeo. […] artificial chromosome (BAC) containing the Nanog gene in the center was isolated, and then the GFP gene and the puromycin resistance gene were knocked in by recombination in E. coli (FIG. 12A). Subsequently, the above modified BAC was introduced into ES cells to confirm that the cells became GFP-positive in an undifferentiated state specific manner (data not shown). Then, these ES cells were transplanted in mouse blastocysts to create transgenic mice via chimeric mice. In these mice, GFP-positive cells were specifically observed in inner cell masses of the blastocysts or gonads of embryos at 13.5 days after fertilization (FIG. 12B). The gonads were removed from the embryos at 13.5 days after fertilization (hybrid of DBA, 129, and C57BL/6 mice), and MEFs were isolated. The isolated MEFs were confirmed to be GFP-negative (FIG. 13) by flow cytometry. These MEFs were retrovirally transduced with the 4 factors and subjected to puromycin selection, and as a result, a plural number of resistant colonies were obtained. Only about 10 to 20% of the colonies were GFP-positive. When the GFP-positive colonies were passaged, they gave morphology (FIG. 14) and proliferation (FIG. 15) similar to those of ES cells. […]

[2] = tested on: MEFs derived from the Fbx15^βgeo/βgeo mouse; assay: Effect of cytokine-producing STO feeder cells on iPS cell establishment (G418 selection); type: cell-based; conditions: 3 factors other than c-Myc transduced
Text: An effect of cytokine on iPS cell establishment was investigated. Expression vector (pMX retroviral vector) for basic fibroblast growth factor (bFGF) or stem cell factor (SCF) was transduced into feeder cells (STO cells) to establish cells permanently expressing the cytokines. […] As a result, the number of formed colonies increased 20 times or higher on the STO cells producing bFGF (FIG. 11) or SCF (data not shown), as compared with the culture on normal STO cells.

Row | Molecule | percentage of GFP-positive colonies [1] | colony formation with the 3 factors other than c-Myc on cytokine-producing STO cells [2]
1 | COc1cccc(-c2cc(=O)c3ccccc3o2)c1N [PD98059] | 45% | –
2 | SCF: cytokine permanently expressed by STO feeder cells transduced with pMX expression vector (protein, UniProt P20826 26-190, looked up) Soluble KIT ligand: KEICGNPVTDNVKDITKLVANLPNDYMITLNYVAGMDVLPSHCWLRDMVIQLSLSLTTLLDKFSNISEGLSNYSIIDKLGKIVDDLVLCMEENAPKNIKESPKRPETRSFTPEEFFSIFNRSIDAFKDFMVASDTSDCVLSSTLGPEKDSRVSVTKPFMLPPVAA | – | colony formation was observed
3 | bFGF: cytokine permanently expressed by STO feeder cells transduced with pMX expression vector (protein, UniProt P15655 10-154, looked up) Fibroblast growth factor 2: PALPEDGGAAFPPGHFKDPKRLYCKNGGFFLRIHPDGRVDGVREKSDPHVKLQLQAEERGVVSIKGVCANRYLAMKEDGRLLASKCVTEECFFFERLESNNYNTYRSRKYSSWYVALKRTGQYKLGSKTGPGQKAILFLPMSAKS | – | colony formation was observed
